Laboratory results taken from PMC6316570, “G-Protein Coupled Receptor Protein Synthesis on a Lipid Bilayer Using a Reconstituted Cell-Free Protein Synthesis System” (Life, 2018).

T1: His-tagged CX3CR1 (human, UniProt P49238 1-355)
T1 construct: CX3CR1 (fractalkine receptor), human cDNA; Two templates are described; The pET28a plasmid has an N-terminal 6xHis tag, the linker DYDIPTT and a TEV site; The linear PCR product takes its His-tag from the reverse primer, which would be C-terminal; In the nanodisc assay the receptor sat in a lipid nanodisc (MSP scaffold, POPC/POPS/cholesterol); In the micelle assay it was in detergent; also called …
T1 sequence (looked up): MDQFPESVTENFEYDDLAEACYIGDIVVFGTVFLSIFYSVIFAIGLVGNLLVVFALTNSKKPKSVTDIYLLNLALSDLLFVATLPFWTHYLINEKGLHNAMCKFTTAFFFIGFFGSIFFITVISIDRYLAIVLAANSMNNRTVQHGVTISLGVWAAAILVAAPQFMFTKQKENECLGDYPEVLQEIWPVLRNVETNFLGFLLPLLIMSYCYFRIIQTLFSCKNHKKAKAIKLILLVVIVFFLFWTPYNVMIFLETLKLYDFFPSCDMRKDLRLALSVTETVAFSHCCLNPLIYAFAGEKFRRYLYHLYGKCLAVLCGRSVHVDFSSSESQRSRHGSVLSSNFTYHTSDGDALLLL


Tests used:
His-tagged CX3CR1 [1] = biological target: T1, His-tagged CX3CR1; experiment: SPR; Biacore T200; unpurified PURE-synthesized His-tagged CX3CR1-nanodisc complex captured (~1500 RU) on Penta-His antibody on CM5 chip; purified CX3CL1 injected; HBS-P (10 mM HEPES pH 7.4, 150 mM NaCl, 0.05% P20), 25 °C, 30 µL/min; single cycle kinetics; 1:1 interaction model
His-tagged CX3CR1 [2] = biological target: T1, His-tagged CX3CR1; experiment: SPR; Biacore T200; unpurified PURE-synthesized Strep-tag II CX3CL1 captured (~1000 RU) on StrepMAB-Immo antibody on CM5 chip; purified His-tagged CX3CR1 synthesized with micelles, in detergent, injected; HBS-P, 25 °C, 30 µL/min; single cycle kinetics; 1:1 interaction model; settings: one partner purified

Kd (His-tagged CX3CR1 [1]) [nM] | Kd (His-tagged CX3CR1 [2]) [nM] | Molecule
27.8 | – | recombinant CX3CL1 protein (from UniProt P78423 25-397) (ligand)
– | 39.4 | strep-II-tagged ligand CX3CL1 (ligand, UniProt P78423 25-100, looked up, fractalkine (CX3CL1), amplified from pUREstrept2 plasmid; printed size 8.5 kDa; also called fractalkine; CX3CL1-tagged with Strep-tag II; source: PURE system (cell-free), not purified, immobilized directly; not shown: Strep-tag II, N-terminal, kept) QHHGVTKCNITCSKMTSKIPVALLIHYQQNQASCGKRAIILETRQHRLFCADPKEQWVKDAMQHLDRQAAALTRNG
